Results on 3 proteins are retold here after article PMC6544594, “Accelerated directed evolution of dye-decolorizing peroxidase using a bacterial extracellular protein secretion system (BENNY)” (Bioresources and Bioprocessing, 2019).

As a reminder, the Km is the concentration of substrate that gives half-maximal velocity. One may read the kcat as the number of substrate molecules converted per active site and unit of time at saturation. For orientation: kcat/Km means the second-order rate constant that governs catalysis at low substrate concentration.

Substrate in this series: CCn1c(=NN=c2sc3cc(S(=O)(=O)O)ccc3n2CC)sc2cc(S(=O)(=O)O)ccc21
In words: purified protein. The series is classed as biochemical, Pleurotus ostreatus. The conditions noted are these: 50 μL of 1 mM H2O2 in 200 μL (0.25 mM), 0.1 M citric acid–0.2 M Na2HPO4 pH 3.4, ambient temperature.

B1: DyP4 (dye-decolorizing peroxidase 4) (Pleurotus ostreatus PC15) (protein)
chain: MTTPAPPLDLNNIQGDILGGLPKRTETYFFFDVTNVDQFKANMAHFIPHIKTSAGIIKDREAIKEHKRQKKPGLVPMAAVNVSFSHLGLQKLGITDDLSDNAFTTGQRKDAEILGDPGSKNGDAFTPAWEAPFLKDIHGVIFVAGDCHGSVNKKLDEIKHIFGVGTSHASISEVTHVRGDVRPGDVHAHEHFGFLDGISNPAVEQFDQNPLPGQDPIRPGFILAKENGDSRAAARPDWAKDGSFLTFRYLFQMVPEFDDFLESNPIVLPGLSRKEGSELLGARIVGRWKSGAPIEITPLKDDPKLAADAQRNNKFDFGDSLVRGDQTKCPFAAHIRKTYPRNDLEGPPLKADIDNRRIIRRGIQFGPEVTSQEHHDKKTHHGRGLLFVCYSSSIDDGFHFIQESWANAPNFPVNAVTSAGPIPPLDGVVPGFDAIIGQKVGGGIRQISGTNPNDPTTNITLPDQDFVVPRGGEYFFSPSITALKTKFAIGVASPAPHSQAPISA
notes: DyP4 without OsmY fusion, pET-24a(+)-DyP4 (NdeI/EcoRI), codon-optimized, untagged, E. coli BL21 (DE3), ion-exchange and SEC purified; forward primer encodes MTTPAPPL
As for B1, the Km was found to be 895 ± 65 µM, the kcat turned out to be 3.86 ± 0.08 s⁻¹ and the catalytic efficiency (kcat/Km) worked out at 4310 ± 410 M⁻¹ s⁻¹.

B2: DyP4 (dye-decolorizing peroxidase 4) (Pleurotus ostreatus PC15; I56V/K109R/N227S/N312S) (protein)
chain: MTTPAPPLDLNNIQGDILGGLPKRTETYFFFDVTNVDQFKANMAHFIPHIKTSAGVIKDREAIKEHKRQKKPGLVPMAAVNVSFSHLGLQKLGITDDLSDNAFTTGQRRDAEILGDPGSKNGDAFTPAWEAPFLKDIHGVIFVAGDCHGSVNKKLDEIKHIFGVGTSHASISEVTHVRGDVRPGDVHAHEHFGFLDGISNPAVEQFDQNPLPGQDPIRPGFILAKESGDSRAAARPDWAKDGSFLTFRYLFQMVPEFDDFLESNPIVLPGLSRKEGSELLGARIVGRWKSGAPIEITPLKDDPKLAADAQRSNKFDFGDSLVRGDQTKCPFAAHIRKTYPRNDLEGPPLKADIDNRRIIRRGIQFGPEVTSQEHHDKKTHHGRGLLFVCYSSSIDDGFHFIQESWANAPNFPVNAVTSAGPIPPLDGVVPGFDAIIGQKVGGGIRQISGTNPNDPTTNITLPDQDFVVPRGGEYFFSPSITALKTKFAIGVASPAPHSQAPISA
notes: as for B1
Consider B2, for which, under “variant 4D4”, the Km came to 390 ± 59 µM, the kcat turned out to be 4.52 ± 0.15 s⁻¹ and the kcat/Km worked out at 11600 ± 2140 M⁻¹ s⁻¹.

B3: DyP4 (dye-decolorizing peroxidase 4) (Pleurotus ostreatus PC15; I56V/K109R/N312S) (protein)
chain: MTTPAPPLDLNNIQGDILGGLPKRTETYFFFDVTNVDQFKANMAHFIPHIKTSAGVIKDREAIKEHKRQKKPGLVPMAAVNVSFSHLGLQKLGITDDLSDNAFTTGQRRDAEILGDPGSKNGDAFTPAWEAPFLKDIHGVIFVAGDCHGSVNKKLDEIKHIFGVGTSHASISEVTHVRGDVRPGDVHAHEHFGFLDGISNPAVEQFDQNPLPGQDPIRPGFILAKENGDSRAAARPDWAKDGSFLTFRYLFQMVPEFDDFLESNPIVLPGLSRKEGSELLGARIVGRWKSGAPIEITPLKDDPKLAADAQRSNKFDFGDSLVRGDQTKCPFAAHIRKTYPRNDLEGPPLKADIDNRRIIRRGIQFGPEVTSQEHHDKKTHHGRGLLFVCYSSSIDDGFHFIQESWANAPNFPVNAVTSAGPIPPLDGVVPGFDAIIGQKVGGGIRQISGTNPNDPTTNITLPDQDFVVPRGGEYFFSPSITALKTKFAIGVASPAPHSQAPISA
notes: as for B1
For B3, where the note is “variant 3F6”, the Km came to 427 ± 55 µM, the kcat was determined as 5.02 ± 0.15 s⁻¹ and the kcat/Km was 11800 ± 1860 M⁻¹ s⁻¹.
